Results on 1 molecule are retold here after PMC3630055, “Bovine HEXIM1 inhibits bovine immunodeficiency virus replication through regulating BTat-mediated transactivation” (Veterinary Research, 2013).

This assay addresses T1, His-BHEXIM1 (bovine, UniProt Q0X0C4 1-320).
T1 construct: bovine HEXIM1 (320 amino acids); pETH vector; the only BHEXIM1 cDNA described was amplified from the start to the stop codon (320 aa), so the construct is probably whole; also called purified BHEXIM1 protein; source: E. coli BL21 (DE3), purified (His Sepharose 6)
T1 sequence (looked up): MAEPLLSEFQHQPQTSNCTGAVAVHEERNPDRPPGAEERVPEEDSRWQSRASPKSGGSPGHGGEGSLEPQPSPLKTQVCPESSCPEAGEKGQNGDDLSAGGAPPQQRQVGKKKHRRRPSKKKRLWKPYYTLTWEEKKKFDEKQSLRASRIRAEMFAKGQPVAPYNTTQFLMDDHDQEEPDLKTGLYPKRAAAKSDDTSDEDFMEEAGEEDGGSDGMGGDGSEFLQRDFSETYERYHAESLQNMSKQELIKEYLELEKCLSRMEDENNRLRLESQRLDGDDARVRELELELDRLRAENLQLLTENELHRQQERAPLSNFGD
In words: pull-down; purified GST or GST-B-cyclin T1 immobilised on glutathione Sepharose 4B beads, incubated with purified His-fusion proteins; anti-His immunoblot; in the competition 20 μg GST-B-cyclin T1, 5 μg His-BTat and 1, 5, 10, 20 μg His-BHEXIM1. The conditions noted are these: both partners purified.

B1: GST-B-cyclin T1 (aa 1-272) (domain or fragment, bovine, UniProt Q6T8E9 1-272, looked up)
chain: MEGERKNNNKRWYFTREQLENSPSRRFGLDPDKELSNRQQAANLLQDMGQRLNVSQLTINTAIVYMHRFYMIQSFTQFHRNSVAPAALFLAAKVEEQPKKLEHVIKVAHTCLHPQESLPDTRSEAYLQQVQDLVILESIILQTLGFELTIDHPHTHVVKCTQLVRASKDLAQTSYFMATNSLHLTTFSLQYTPPVVACVCIHLACKWSNWEIPVSTDGKHWWEYVDATVTLELLDELTHEFLQILEKTPNRLKRIWNWRAWQADRKTKADDR
notes: bovine cyclin T1, residues 1-272; pGEX6p-1 vector; source: E. coli BL21 (DE3), purified (glutathione Sepharose 4B)
Turning to B1, the binding result is “binds”.
